Read-outs that look alike come from different tables or passages of the source.
T1: STING CTD (STINGΔ1-138, AA139-379), His-tag removed (human), Q86WV6
T1 chain: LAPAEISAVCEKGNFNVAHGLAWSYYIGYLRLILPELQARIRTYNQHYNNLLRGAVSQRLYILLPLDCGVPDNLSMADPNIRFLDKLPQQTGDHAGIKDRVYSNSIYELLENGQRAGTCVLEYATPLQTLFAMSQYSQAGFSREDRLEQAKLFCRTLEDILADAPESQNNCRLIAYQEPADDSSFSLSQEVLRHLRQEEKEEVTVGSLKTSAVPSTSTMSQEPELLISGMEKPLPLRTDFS

T2: STING CTD WT (AA139-379) with His-tag (human), Q86WV6
T2 chain: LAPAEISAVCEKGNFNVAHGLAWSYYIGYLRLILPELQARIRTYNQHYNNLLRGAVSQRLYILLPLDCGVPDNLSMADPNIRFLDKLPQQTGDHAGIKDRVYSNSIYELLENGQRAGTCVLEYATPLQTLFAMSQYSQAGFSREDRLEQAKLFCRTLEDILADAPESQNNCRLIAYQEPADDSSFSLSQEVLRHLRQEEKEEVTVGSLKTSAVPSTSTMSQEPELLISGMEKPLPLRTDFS


How the values were obtained:
[1] = target: T1, STING CTD (STINGΔ1-138, AA139-379), …; assay: AUC; settings: remark: other sources report otherwise
[2] = target: the molecule itself; assay: SEC
[3] = target: T2, STING CTD WT (AA139-379) with His-tag …; assay: SEC; settings: remark: other sources report otherwise
[4] = target: the molecule itself

Binder	stoichiometry N [2]	further results
STING CTD (STINGΔ1-138, AA139-379), His-tag removed, Q86WV6 139-379 (domain or fragment) LAPAEISAVCEKGNFNVAHGLAWSYYIGYLRLILPELQARIRTYNQHYNNLLRGAVSQRLYILLPLDCGVPDNLSMADPNIRFLDKLPQQTGDHAGIKDRVYSNSIYELLENGQRAGTCVLEYATPLQTLFAMSQYSQAGFSREDRLEQAKLFCRTLEDILADAPESQNNCRLIAYQEPADDSSFSLSQEVLRHLRQEEKEEVTVGSLKTSAVPSTSTMSQEPELLISGMEKPLPLRTDFS		stoichiometry N [1]: 2
STING CTD K150A (domain or fragment, human, UniProt Q86WV6 139-379, looked up) LAPAEISAVCEAGNFNVAHGLAWSYYIGYLRLILPELQARIRTYNQHYNNLLRGAVSQRLYILLPLDCGVPDNLSMADPNIRFLDKLPQQTGDHAGIKDRVYSNSIYELLENGQRAGTCVLEYATPLQTLFAMSQYSQAGFSREDRLEQAKLFCRTLEDILADAPESQNNCRLIAYQEPADDSSFSLSQEVLRHLRQEEKEEVTVGSLKTSAVPSTSTMSQEPELLISGMEKPLPLRTDFS	2	
STING CTD K150L (domain or fragment, human, UniProt Q86WV6 139-379, looked up) LAPAEISAVCELGNFNVAHGLAWSYYIGYLRLILPELQARIRTYNQHYNNLLRGAVSQRLYILLPLDCGVPDNLSMADPNIRFLDKLPQQTGDHAGIKDRVYSNSIYELLENGQRAGTCVLEYATPLQTLFAMSQYSQAGFSREDRLEQAKLFCRTLEDILADAPESQNNCRLIAYQEPADDSSFSLSQEVLRHLRQEEKEEVTVGSLKTSAVPSTSTMSQEPELLISGMEKPLPLRTDFS	2	
STING CTD K150R (domain or fragment, human, UniProt Q86WV6 139-379, looked up) LAPAEISAVCERGNFNVAHGLAWSYYIGYLRLILPELQARIRTYNQHYNNLLRGAVSQRLYILLPLDCGVPDNLSMADPNIRFLDKLPQQTGDHAGIKDRVYSNSIYELLENGQRAGTCVLEYATPLQTLFAMSQYSQAGFSREDRLEQAKLFCRTLEDILADAPESQNNCRLIAYQEPADDSSFSLSQEVLRHLRQEEKEEVTVGSLKTSAVPSTSTMSQEPELLISGMEKPLPLRTDFS	2	
STING CTD WT (AA139-379) with His-tag, Q86WV6 139-379 (domain or fragment) LAPAEISAVCEKGNFNVAHGLAWSYYIGYLRLILPELQARIRTYNQHYNNLLRGAVSQRLYILLPLDCGVPDNLSMADPNIRFLDKLPQQTGDHAGIKDRVYSNSIYELLENGQRAGTCVLEYATPLQTLFAMSQYSQAGFSREDRLEQAKLFCRTLEDILADAPESQNNCRLIAYQEPADDSSFSLSQEVLRHLRQEEKEEVTVGSLKTSAVPSTSTMSQEPELLISGMEKPLPLRTDFS		stoichiometry N [3]: 2
STINGΔ1-148 (AA149-379) (domain or fragment, human, UniProt Q86WV6 149-379, looked up) EKGNFNVAHGLAWSYYIGYLRLILPELQARIRTYNQHYNNLLRGAVSQRLYILLPLDCGVPDNLSMADPNIRFLDKLPQQTGDHAGIKDRVYSNSIYELLENGQRAGTCVLEYATPLQTLFAMSQYSQAGFSREDRLEQAKLFCRTLEDILADAPESQNNCRLIAYQEPADDSSFSLSQEVLRHLRQEEKEEVTVGSLKTSAVPSTSTMSQEPELLISGMEKPLPLRTDFS		stoichiometry N [4]: 2

Source: PMC3654694 (Immunity, 2012)
